Literature values, collected in publication PMC6600238.

Target: vitronectin (Homo sapiens) (UniProt P04004)
Chain of UniProt P04004 (P04004 399-478): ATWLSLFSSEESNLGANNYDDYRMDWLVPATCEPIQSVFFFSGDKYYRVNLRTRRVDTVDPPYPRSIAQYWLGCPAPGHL

uPAR (from UniProt Q03405)
Kd: 4 µM
